Non-standard residues stand in square brackets, D forms with d. Residues, ends and D or L forms follow the SMILES beside them. *: point of attachment. Dolaproine = CO[C@@H]([C@@H]1CCCN1)[C@@H](C)C(=O)O; Dil = CC[C@H](C)[C@H](NC)[C@@H](CC(=O)O)OC; {MMAE} = monomethyl auristatin E payload; X1 = C[C@@H](N*)[C@@H](O)c1ccccc1; {Cy5} = cyanine 5 fluorescent dye; NMeV = CN[C@H](C(=O)O)C(C)C

For series [1], the system named is U118MG glioma subcutaneous tumor. Nature of the series: In vivo anti-tumor activity in U118MG subcutaneous tumor mice (Experimental Example 11). More on the design: species or system NOD-SCID mice. How it is done: The mice in this experiment were purchased from SPF Co., LTD: the germline was NOD-SCID, the grade was SPF, male, 6-8 weeks old; U118MG neuroglioma cells were purchased from Jennio.
The conjugate AP2 above was formulated into a 1.94 mg/mL solution with PBS. Conjugate 20 was respectively formulated into 0.625 mg/mL, 1.25 mg/mL and 2.06 mg/mL solutions with PBS (all calculated based on the amount of aptamer). MMAE (purchased from Shanghai Macklin Inc., Lot No. C12886583) was dissolved into a 0.038 mg/mL solution with a mixed solution of 10% DMSO+90% PBS (volume ratio).
The day of inoculation is designated as D1, and administration is performed once on D8, D12, D16 and D20.
36 mice were randomly divided into the following 6 groups (6 mice per group):
For blank control group 1, PBS was administered by tail vein injection with a single administration volume of 10 μL/g. […]
The long diameters and short diameters of the tumors were measured in vitro. The tumor volume was calculated according to the equation ½ (long diameter×short diameter^2). Prior to the first administration on D8, the tumor volumes in each group were measured and the average tumor volumes were recorded; the tumor volumes in each group were measured and recorded from D16 (twice a week).

In series [2] the test system is U118MG subcutaneous tumor. The series can be described thus: Long-interval administration in U118MG subcutaneous tumor model mice (Experimental Example 23). In kind it is in vivo. The settings on record: 0.1 or 0.3 mg/kg subcutaneous on D8, D11, D15, D29, D32, D36. How it is done:
According to the method of Experimental Example 4, 42 mice inoculated with U118MG subcutaneous tumor were obtained, and were further fed after injection.
MMAE was dissolved into solutions with concentrations of 0.03 mg/mL and 0.01 mg/mL with 10% DMSO+90% serum-free DMEM medium (volume ratio). Conjugate 39 was dissolved into solutions with concentrations of 0.5 mg/mL and 0.165 mg/mL (based on aptamer). Comparative conjugate 44 was dissolved into solutions with concentrations of 0.5 mg/mL and 0.165 mg/mL (based on aptamer).
7 days after inoculation of U118MG cells, all mice were randomly divided into seven groups (6 mice per group), and each group of mice was administered. […] The mice were weighed before administration and the administration volume was calculated according to weight. […]
The tumor volumes were measured on D1, D9, D16, D19, D21, D24, D26, D29, D32, D36, D39, D43, D47, D53, D57, D60, D64, D67, D71, D74, D78, D81, D84, D88, D92, D95, and D99, wherein the blank control group was measured on D53, and test groups 7a, 7b and control group 7c were measured on D60, and then the experiment was terminated.
The long diameters and short diameters of the tumors were measured in vitro. The tumor volume was calculated according to the equation ½ (long diameter×short diameter^2). After the experiment was terminated, the tumor tissues were taken and weighed, and the average value was calculated.

The subject of series [3] is U118MG subcutaneous tumor. Nature of the series: In vivo distribution of conjugates with different modifications in U118MG subcutaneous tumor model mice (Experimental Example 6). More on the design: species or system NOD-SCID mice. The settings on record: 3 mg/kg tail vein. How it is done: U118MG subcutaneous tumor model mice were prepared according to the method described in experimental Example 4.
9 mice were divided into 3 groups (3 mice per group). AP2, AP3 and comparative AP12 solutions were respectively administered to each mouse of each group by tail vein injection. […] The three groups of mice were respectively designated as test group 6A, test group 6B and test group 6C. […] On Day 10 after administration, one mouse of blank control group 6Y and one mouse of test group 6A was respectively euthanized and tumor tissues were taken for fluorescence imaging, and the results are shown in FIG. 5H. In FIGS. 5A-5H, Blank represents blank control group 6Y.

In series [4] the test system is U118MG glioma subcutaneous tumor. Nature of the series: In vivo distribution in U118MG cell subcutaneous tumor model mice (Experimental Example 4). Also on record: species or system NOD-SCID mice. The method, then: U118MG human glioma cells in the logarithmic growth phase were selected and digested (0.25% pancreatic enzyme).
The mice were further fed for 20 days after injection.
The mice inoculated with U118MG above were randomly divided into 3 groups (4 mice per group). For the 4 mice per group, the administration volume was calculated according to 10 μL/g body weight, and AP1, AP2 and comparative AP11 were respectively administered to different groups of mice by tail vein injection and designated as test group 4A1, test group 4A2 and control group 4A3. Thus, the administration dosage of each mouse was 3 mg/kg (based on aptamer). Another mouse inoculated with U118MG above was administered with 1×DMEM medium by tail vein injection (the administration volume was 10 μL/g body weight), and designated as blank control group 4Y.

For series [5], the system named is U118MG in situ brain glioma. The settings on record: mouse, in vivo, 3 mg/kg.
Procedure: (§1) U118MG human glioma cells in the logarithmic growth phase cultured as described in experimental Example 4 were selected and digested with 0.25% pancreatic enzyme. The cells were collected, the supernatant was aspirated, and then the cells were resuspended in DMEM medium supplemented with 10% FBS to be formulated into a cell culture solution with a cell density of 4×10^7 cells/mL.
(§2) Experimental animals were 16 NOD-SCID mice (male, 12 weeks old, purchased from SPF (Beijing) Biotechnology Co., LTD.). […]
(§3) AP1, AP2 and comparative AP11 were respectively dissolved into conjugate solutions with a concentration of 0.3 mg/mL (based on aptamer) with 1×DMEM medium. […] The administration dosage for all animals was calculated according to body weight, the administration volume was all 10 μL/g, and the administration dosage was 3 mg/kg per animal (based on the amount of aptamer). […]
(§4) At 24 h after administration, one mouse in each group was respectively euthanized and brain tissue was taken, and the remaining mice were euthanized at 48 h after administration and brain tissues were taken. The brain tissues of mice were taken for fluorescence imaging in IVIS Lumina Series III.
For series [6], the system named is U118MG in situ brain glioma. Nature of the series: In vivo distribution in U118MG cell tumor in situ model mice (Experimental Example 5). The settings on record: control groups 5C (intrathecal 100 μg) and 5F (tail vein 3 mg/kg); 24 h and 48 h.
Procedure: as §1, §2, §3, §4
The subject of a further series is A549 subcutaneous tumors. The series can be described thus: In vivo activity in A549 subcutaneous tumor model mice (Experimental Example 25). The settings on record: 5 mg/kg (MMAE equivalent 0.3 mg/kg) D8, D12, D15, D19; 0.6 mg/kg MMAE equivalent D46, D50, D54; at each period of time. The method, then: According to the method of Experimental Example 4, 30 mice inoculated with A549 subcutaneous tumors were obtained, and were further fed after injection.
Conjugate 20 and conjugate 39 were dissolved into conjugate solutions with a concentration of 1 mg/mL (based on aptamer) with serum-free DMEM medium. Comparative conjugate 43 was dissolved into a conjugate solution with a concentration of 0.8 mg/mL (based on aptamer). MMAE was dissolved into a solution with a concentration of 0.06 mg/mL with 10% DMSO+90% serum-free DMEM medium (volume ratio).
7 days after the inoculation of A549 human lung cancer cells, all mice were divided into groups (6 mice each group), and each mouse was administered. The day of administration was designated as D8. The mice were weighed before administration, and the administration volume was calculated according to mouse body weight.
Each group of mice was administered once on D8, D12, D15, and D19, four times in total. […]
Tumor volumes were measured on D1, D9, D16, D19, D22, D26, D30, D36, D40, D43, D47, D50, D54, and D57, wherein the blank control group was measured on D54, and then the experiment was terminated.
The long diameters and short diameters of the tumors were measured in vitro. The tumor volume was calculated according to the equation ½ (long diameter×short diameter^2).

In the case of `CC[C@H](C)[C@@H]([C@@H](CC(=O)N1CCC[C@H]1[C@H](OC)[C@@H](C)C(=O)N[C@H](C)[C@@H](O)c1ccccc1)OC)N(C)C(=O)[C@@H](NC(=O)[C@@H](NC)C(C)C)C(C)C` [MMAE, Monomethylauristatin E, reference compound] (H-[NMeV]V[Dil][Dolaproine]-X1), the “growth rate of tumor volume” value is “growth rate of the tumor volume was reduced” in series [1] (control group 3: 0.3 mg/kg tail vein on D8, D12, D16, D20) and “growth rate of tumor volume was reduced” in series [2].

As to “CY5-CmUmGmGmAmGmUmUmCmAmGmAmCmGmUmGmUmUmGmCmUmCmUmUmCmCmGmAmUmCmUmCm [AP2]”, the “fluorescence intensity in vivo / tumor” value in series [3] (4 h to 24 h after administration) is on record as “still show high fluorescence intensity”. Besides, the “fluorescent signal in vivo / tumor” value in series [3] (48 h to Day 10 after administration) is given as “still show strong fluorescent signal”. In series [1] (control group 2: 15.5 mg/kg tail vein on D8, D12, D16, D20), the “tumor volume over time” value is “increased rapidly”. Further, in series [4] (mouse, in vivo), the “fluorescence signal in mice / at site of tumor inoculation” value is “strong fluorescence signal at the sites of tumor inoculation”. Also, the “fluorescence signal at brain glioma” value in series [5] is “obvious fluorescence signals at both 24 and 48 h”.

On to “CY5-UfCfUfAUfGGCfUfGCfCfGAUfCfUfGGUfCfUfCfCfAUfGUfACfGUf (UCUAUGGCUGCCGAUCUGGUCUCCAUGUACGU; 2'-fluoro at CU, RNA at AG, 5' {Cy5}, backbone not given here) [comparative AP11, reference compound]”, for which the “fluorescence signal at the tumor site, brain tissue” value in series [6] is recorded as “no obvious fluorescence signal at the tumor site”. In addition, the “fluorescence signal in mice / at site of tumor inoculation” value in series [4] (3 mg/kg tail vein injection, 1 h, 4 h, 24 h, 48 h after administration) is reported as “substantially no or weak fluorescence signal”.

As for “MMAE-CmUmGmGmAmGmUmUmCmAmGmAmCmGmUmGmUmUmGmCmUmCmUmUmCmCmGmAmUmCmUmCm (CUGGAGUUCAGACGUGUUGCUCUUCCGAUCUC; all 2'-O-methyl, 5' {MMAE}, backbone not given here) [conjugate 20]”, the “tumor volume versus control groups 25b (MMAE) and 25e (comparative conjugate 43)” value in the series on A549 subcutaneous tumors was “smaller than those of control groups 25b and 25e”.

For “MMAE-CmUmGmGmAmGmUmUmCmAmGmAmCmGmUmUmGmUmGmCmUmCmUmUm (CUGGAGUUCAGACGUUGUGCUCUU; all 2'-O-methyl, 5' {MMAE}, backbone not given here) [conjugate 39]”, the “tumor volume versus control groups 25b (MMAE) and 25e (comparative conjugate 43)” value with A549 subcutaneous tumors is “smaller than those of control groups 25b and 25e”.

These data come from patent US20250325675A1, “APTAMER, CONJUGATE, COMPOSITION, METHOD FOR PREPARING SAME, AND USE THEREOF” (priority 2022, published 2025).
